The source of these data is patent US20260166084A1 (published 2026).

Assay [1] deals with complex formed between CRBN/DDB1 and iberdomide (UniProt Q96SW2 1-442; Q16531 2-1140). The assay is described as follows: TR-FRET displacement; iberdomide. Background: Time-resolved FRET reads energy transfer from a long-lived donor to a nearby acceptor.
The target of assay [2] is complex formed between CRBN/DDB1 and lenalidomide (UniProt Q96SW2 1-442; Q16531 2-1140). The assay is described as follows: TR-FRET displacement; lenalidomide.
Chain of complex formed between CRBN/DDB1 and lenalidomide (Q96SW2 whole entry, chain 1 of 2): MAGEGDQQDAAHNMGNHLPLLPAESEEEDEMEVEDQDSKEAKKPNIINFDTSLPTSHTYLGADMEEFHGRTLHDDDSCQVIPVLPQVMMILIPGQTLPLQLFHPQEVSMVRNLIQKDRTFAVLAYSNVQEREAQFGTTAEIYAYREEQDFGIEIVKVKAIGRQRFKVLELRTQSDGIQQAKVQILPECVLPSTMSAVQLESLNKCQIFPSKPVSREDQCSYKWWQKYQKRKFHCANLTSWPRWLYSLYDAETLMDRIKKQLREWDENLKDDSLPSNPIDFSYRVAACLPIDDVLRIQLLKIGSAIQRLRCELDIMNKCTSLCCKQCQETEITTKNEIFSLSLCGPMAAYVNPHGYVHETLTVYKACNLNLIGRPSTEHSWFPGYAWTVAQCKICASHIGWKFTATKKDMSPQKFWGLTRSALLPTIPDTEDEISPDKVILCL
Chain of complex formed between CRBN/DDB1 and lenalidomide (Q16531 2-1140, chain 2 of 2): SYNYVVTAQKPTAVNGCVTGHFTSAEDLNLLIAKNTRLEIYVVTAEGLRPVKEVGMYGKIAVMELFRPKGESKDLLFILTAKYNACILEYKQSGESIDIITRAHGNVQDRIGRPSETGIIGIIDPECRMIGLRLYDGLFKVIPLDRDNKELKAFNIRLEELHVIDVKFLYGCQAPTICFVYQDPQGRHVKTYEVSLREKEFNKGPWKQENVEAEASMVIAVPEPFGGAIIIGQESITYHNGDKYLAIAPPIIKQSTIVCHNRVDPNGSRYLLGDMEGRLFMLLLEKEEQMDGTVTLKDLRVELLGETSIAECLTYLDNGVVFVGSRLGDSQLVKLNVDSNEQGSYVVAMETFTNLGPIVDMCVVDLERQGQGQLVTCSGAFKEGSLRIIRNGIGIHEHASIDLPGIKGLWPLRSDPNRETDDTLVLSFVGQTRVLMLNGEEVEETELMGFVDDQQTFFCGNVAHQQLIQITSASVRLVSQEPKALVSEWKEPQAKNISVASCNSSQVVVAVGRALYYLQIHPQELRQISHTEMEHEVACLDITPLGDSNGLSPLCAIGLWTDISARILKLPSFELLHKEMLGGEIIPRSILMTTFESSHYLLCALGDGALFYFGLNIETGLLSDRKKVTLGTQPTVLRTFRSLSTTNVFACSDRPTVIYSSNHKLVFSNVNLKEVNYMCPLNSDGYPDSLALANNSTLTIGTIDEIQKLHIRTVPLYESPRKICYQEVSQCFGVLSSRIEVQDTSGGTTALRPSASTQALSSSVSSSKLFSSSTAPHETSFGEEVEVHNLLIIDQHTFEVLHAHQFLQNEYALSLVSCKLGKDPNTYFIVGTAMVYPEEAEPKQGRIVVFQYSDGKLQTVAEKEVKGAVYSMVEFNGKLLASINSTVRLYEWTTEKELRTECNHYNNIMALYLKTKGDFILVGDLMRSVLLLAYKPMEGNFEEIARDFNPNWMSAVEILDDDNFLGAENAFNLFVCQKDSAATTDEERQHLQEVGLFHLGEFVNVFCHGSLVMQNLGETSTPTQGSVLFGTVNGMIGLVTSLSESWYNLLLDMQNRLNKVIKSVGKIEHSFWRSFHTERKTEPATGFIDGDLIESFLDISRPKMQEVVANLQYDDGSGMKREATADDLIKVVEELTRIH
For assay [3], the target named is complex formed between CRBN/DDB1 and pomalidomide (UniProt Q96SW2 1-442; Q16531 2-1140). The assay is described as follows: TR-FRET displacement; pomalidomide.
Chain of complex formed between CRBN/DDB1 and pomalidomide (Q96SW2 whole entry, chain 1 of 2): as the sequence (Q96SW2 whole entry, chain 1 of 2) above
Chain of complex formed between CRBN/DDB1 and pomalidomide (Q16531 2-1140, chain 2 of 2): as the sequence (Q16531 2-1140, chain 2 of 2) above

Chain of complex formed between CRBN/DDB1 and iberdomide (Q96SW2 whole entry, chain 1 of 2): as the sequence (Q96SW2 whole entry, chain 1 of 2) above
Chain of complex formed between CRBN/DDB1 and iberdomide (Q16531 2-1140, chain 2 of 2): as the sequence (Q16531 2-1140, chain 2 of 2) above

B1: iTAG2 (DCD23mut) (designed binder)
chain: PNVLMVHNESHTGEIPLQCEICGFTCEQAGNLLNHIELHSGEIPFKCHLCNYACRRRDAL
For B1, the IC50 (commonly the concentration that gives 50% inhibition) in assay [1] was found to be 556 nM; in assay [2], 860 nM; in assay [3] it was 834 nM.

B2: iTAG1 (DCD23) (designed binder)
chain: PNVLMVHKRSHTGERPLQCEICGFTCRQKGNLLRHIKLHSGEKPFKCHLCNYACRRRDAL
Take B2: the IC50 in assay [1] worked out at 36.4 nM; in assay [2], 78.7 nM; in assay [3], 49.8 nM.
